Test results taken from article PMC5233613, “Structural insights into the recognition of phosphorylated FUNDC1 by LC3B in mitophagy” (Protein & Cell, 2016).
Non-standard residues stand in square brackets, D forms with d. No end group written: not given here. pY = N[C@@H](Cc1ccc(OP(=O)(O)O)cc1)C(=O)O; pS = N[C@@H](COP(=O)(O)O)C(=O)O

What was measured:
Assay in all cases: ITC; MicroCal iTC200, 25 °C; proteins 0.25 mmol/L and peptides 3 mmol/L, dialyzed against buffer B (20 mmol/L Tris-HCl, 200 mmol/L NaCl, 1 mmol/L EDTA, pH 8.0); single binding site model
Conditions in all cases: both partners purified
[1] = target: microtubule-associated protein light chain 3 beta (LC3B), wild type, full-length 1-125 (human, UniProt Q9GZQ8 1-120)
LC3B L47A = LC3B L47A (human, UniProt Q9GZQ8 1-120, L47A)
LC3B D48A = LC3B D48A (human, UniProt Q9GZQ8 1-120, D48A)
LC3B T50A = LC3B T50A (human, UniProt Q9GZQ8 1-120, T50A)
LC3B R10A = LC3B R10A (human, UniProt Q9GZQ8 1-120, R10A)
LC3B R11A = LC3B R11A (human, UniProt Q9GZQ8 1-120, R11A)
LC3B F7A = LC3B F7A (human, UniProt Q9GZQ8 1-120, F7A)
LC3B V46A = LC3B V46A (human, UniProt Q9GZQ8 1-120, V46A)
LC3B R10E = LC3B R10E (human, UniProt Q9GZQ8 1-120, R10E)
LC3B R11E = LC3B R11E (human, UniProt Q9GZQ8 1-120, R11E)
LC3B K49A = LC3B K49A (human, UniProt Q9GZQ8 1-120, K49A)
LC3B K49E = LC3B K49E (human, UniProt Q9GZQ8 1-120, K49E)
LC3B K49R = LC3B K49R (human, UniProt Q9GZQ8 1-120, K49R)
LC3B R70A = LC3B R70A (human, UniProt Q9GZQ8 1-120, R70A)
LC3B R70E = LC3B R70E (human, UniProt Q9GZQ8 1-120, R70E)
LC3B D19A = LC3B D19A (human, UniProt Q9GZQ8 1-120, D19A)
LC3B I23A = LC3B I23A (human, UniProt Q9GZQ8 1-120, I23A)
LC3B K51A = LC3B K51A (human, UniProt Q9GZQ8 1-120, K51A)
LC3B L53A = LC3B L53A (human, UniProt Q9GZQ8 1-120, L53A)

B1: FUNDC1 LIR peptide 10-25, unphosphorylated (peptide)
peptide: DYESDDDSYEVLDLTE
notes: FUNDC1 (Fun14 domain-containing protein 1), LIR and flanking residues 10-25; also called unphosphorylated FUNDC1 peptide; FUNDC1 peptide; source: synthetic peptide (GL Biochem, Shanghai)
For B1, the Kd [1] was 1.78 ± 0.16 µM, the dH [1] was -3.15 kcal/mol and the “stoichiometry N” value [1] was 1.02. The Kd (LC3B L47A) was 3.07 ± 0.64 µM, the dH (LC3B L47A) was -2.06 kcal/mol and the “stoichiometry N” value (LC3B L47A) was 1.19. The Kd (LC3B D48A) was 1.17 ± 0.15 µM, the dH (LC3B D48A) was -3.03 kcal/mol and the “stoichiometry N” value (LC3B D48A) was 0.98. For the same binder, the Kd (LC3B T50A) was 2.81 ± 0.31 µM, the dH (LC3B T50A) was -2.65 kcal/mol and the “stoichiometry N” value (LC3B T50A) was 1.02. The Kd (LC3B R10A) was 11.4 ± 1.14 µM, the dH (LC3B R10A) was -3.56 kcal/mol and the “stoichiometry N” value (LC3B R10A) was 1.01. The Kd (LC3B R11A) was 5.62 ± 0.25 µM, the dH (LC3B R11A) was -4.51 kcal/mol and the “stoichiometry N” value (LC3B R11A) was 1.12. For the same binder, the Kd (LC3B F7A) was 3.52 ± 0.23 µM, the dH (LC3B F7A) was -3.08 kcal/mol and the “stoichiometry N” value (LC3B F7A) was 1.17. The Kd (LC3B V46A) was 1.59 ± 0.19 µM, the dH (LC3B V46A) was -4.86 kcal/mol and the “stoichiometry N” value (LC3B V46A) was 1.02.

B2: FUNDC1 LIR peptide 10-25 phosphorylated at Ser13 (peptide)
peptide: DYE[pS]DDDSYEVLDLTE
notes: also called FUNDC1 pS13; pS13 peptide; source: synthetic peptide (GL Biochem, Shanghai)
For B2, the Kd [1] was 4.63 ± 0.13 µM, the dH [1] was -3.81 kcal/mol and the “stoichiometry N” value [1] was 1.13. For the same binder, the Kd (LC3B R10E) was 34 ± 3.46 µM, the dH (LC3B R10E) was -2.83 kcal/mol and the “stoichiometry N” value (LC3B R10E) was 1.03. The Kd (LC3B R11E) was 17.1 ± 1.05 µM, the dH (LC3B R11E) was -2.39 kcal/mol and the “stoichiometry N” value (LC3B R11E) was 1.04. The Kd (LC3B R10A) was 28.5 ± 2.97 µM, the dH (LC3B R10A) was -3.67 kcal/mol and the “stoichiometry N” value (LC3B R10A) was 1.02. For the same binder, the Kd (LC3B R11A) was 11.2 ± 0.73 µM, the dH (LC3B R11A) was -4.1 kcal/mol and the “stoichiometry N” value (LC3B R11A) was 1.11.

B3: FUNDC1 LIR peptide 10-25 phosphorylated at Ser17 (peptide)
peptide: DYESDDD[pS]YEVLDLTE
notes: also called FUNDC1 pS17; FUNDC1 pS17 peptide; source: synthetic peptide (GL Biochem, Shanghai)
B3 was tested, and the Kd [1] was 0.59 ± 0.06 µM, the dH [1] was -3.51 kcal/mol and the “stoichiometry N” value [1] was 1. For the same binder, the Kd (LC3B K49A) was 3.56 ± 0.21 µM, the dH (LC3B K49A) was -4.9 kcal/mol and the “stoichiometry N” value (LC3B K49A) was 1.08. The Kd (LC3B K49E) was 120 ± 5.72 µM, the dH (LC3B K49E) was -4.49 kcal/mol and the “stoichiometry N” value (LC3B K49E) was 0.93. The Kd (LC3B K49R) was 0.33 ± 0.07 µM, the dH (LC3B K49R) was -5.78 kcal/mol and the “stoichiometry N” value (LC3B K49R) was 1.17. The Kd (LC3B R70A) was 15.8 ± 1.5 µM, the dH (LC3B R70A) was -1.8 kcal/mol and the “stoichiometry N” value (LC3B R70A) was 1.04. The Kd (LC3B R70E) was 61 ± 3.44 µM, the dH (LC3B R70E) was -2.54 kcal/mol and the “stoichiometry N” value (LC3B R70E) was 1.03. The Kd (LC3B D19A) was 2.39 ± 0.3 µM, the dH (LC3B D19A) was -2.78 kcal/mol and the “stoichiometry N” value (LC3B D19A) was 1.16. For the same binder, the Kd (LC3B I23A) was 4.85 ± 0.25 µM, the dH (LC3B I23A) was -1.53 kcal/mol and the “stoichiometry N” value (LC3B I23A) was 1.04. The Kd (LC3B K51A) was 5.92 ± 0.75 µM, the dH (LC3B K51A) was -2.66 kcal/mol and the “stoichiometry N” value (LC3B K51A) was 1.03. The Kd (LC3B L53A) was 0.97 ± 0.14 µM, the dH (LC3B L53A) was -2.61 kcal/mol and the “stoichiometry N” value (LC3B L53A) was 1.03.

B4: FUNDC1 LIR peptide 10-25 phosphorylated at Tyr18 (peptide)
peptide: DYESDDDS[pY]EVLDLTE
notes: also called FUNDC1 pY18; pY18 peptide; source: synthetic peptide (GL Biochem, Shanghai)
For B4, the Kd [1] was 16.8 ± 2.1 µM, the dH [1] was -0.93 kcal/mol and the “stoichiometry N” value [1] was 1.16.
